Experiments:
[1] = tested on: GST-fused GPCR C-tails; assay: GST-pull down, GPCR C-tails; assay type: binding
Excerpt: (§1) cDNAs encoding the cytoplasmic C-tail of 14 GPCRs and 2 one-transmembrane receptors were cloned into the pGEX-2T prokaryotic expression vector downstream the GST sequence. The following pGEX constructs were engineered: pGEX-DOR encoding residues 314–372 of the δ-opioid receptor (referring to Swiss-Prot accession number U10504), pGEX-MOR encoding residues 334–400 of the µ-opioid receptor (L29301), pGEX-KOR encoding residues 326–380 of the κ–opioid receptor (U17298), pGEX-ORL1 encoding residues 315–370 of the opioid receptor-like 1 (X77130), pGEX-M1 encoding residues 414–460 of the muscarinic M1 acetylcholine receptor (X52068), pGEX-M2 encoding residues 436–466 of the muscarinic M2 acetylcholine receptor (M16404), pGEX- ADRB1 encoding residues 373–477 of the β1 adrenergic receptor (J03019), pGEX-ADRB2 encoding residues 322–413 of the β2 adrenergic receptor (P07550), pGEX-CALCR encoding residues 407–490 of the calcitonin receptor (L00587), pGEX-CNR2 encoding residues 295–360 of the cannabinoid type 2 receptor (P34972), pGEX-5HT7 encoding residues 380–445 of the 5-hydroxytryptamine 7 receptor (L21195), pGEX-H2 encoding residues 284–349 of the histamine 2 receptor (S57565), pGEX-TXA2 encoding residues 304–343 of the α isoform of the thromboxane A2 receptor (D38081), pGEX-FZ4 encoding residues 493–537 of the frizzled 4 receptor (AB032417), pGEX-TGFβ encoding residues 805–849 of the type III transforming growth factor b receptor (L07594), pGEX-IGF1 encoding residues 1268–1367 of the insulin growth factor I receptor (X04434). Free GST was produced by using the pGEX-4T3 expression vector without insert. The same plasmid was used to clone the cDNA encoding a central domain of GASP-1, corresponding to amino acids 380 to 1073, downstream the GST sequence. All these plasmids were transformed into the Escherichia coli BL21 strain and expression was induced using 1mM of isopropylthiogalactoside for 2 h at 37°C. Bacteria were then pelleted, resuspended in PBS supplemented with cOmplete protease inhibitors (Roche), lysed at 1.5 kbar using a basic Z cell disrupter (constant system) and finally the lysates were cleared by centrifugation (10,000g, 15 min, 4°C).
(§2) cDNAs encoding GASP-1 and GASP-2 were cloned into the pcDNA3 eukaryotic expression vectors. cDNAs encoding GASP-3, -6, -7, and -9 were subcloned into pcDNA3.1 vectors. All the clones were controlled by DNA sequencing. The in vitro production was performed by using the TNT Quick-coupled Transcription/Translation T7 kit (Promega) in presence of [^35S]-Methionine according to the instructions from the manufacturer.
GST-fusion proteins were immobilized on glutathione-coupled Sepharose beads (GE Healthcare) for 1 h at 4°C and incubated with [^35S]-labelled in vitro translated GASP proteins or their truncated or mutated forms in ice-cold binding buffer containing: 20 mM Tris-HCl pH 7.4, 150 mM NaCl, 1 mM EDTA, 1 mM DTT, 10% glycerol and 1% Triton X-100. The mixture was incubated for 1 h at 4°C with gentle rocking. The beads were washed five times with the same ice-cold buffer, resuspended in 30 µl SDS-PAGE sample buffer, incubated 10 min at 65°C, and pelleted for 60 s at 3000 g. The supernatants were then analyzed by SDS-PAGE, the gels were stained with Coomassie blue to visualize GST-fusion proteins, dried and analyzed using a Phosphor-imager (Personal Molecular Imager FX, Biorad) to visualize [^35S]-labelled GASPs. Quantification was performed with the Quantity One software (Biorad). GST-pull down quantification data were analyzed using GraphPad Prism 4.03 (GraphPad Software). Quantifications presented are means of at least three independent experiments. […]

[2] = tested on: GST-fused IGF1 (insulin growth factor I receptor) C-tail; assay: GST-pull down, IGF1 C-tail; assay type: binding; details: non-GPCR control
Excerpt: as §1, §2
(§3) GST-fusion proteins were immobilized on glutathione-coupled Sepharose beads (GE Healthcare) for 1 h at 4°C and incubated with [^35S]-labelled in vitro translated GASP proteins or their truncated or mutated forms in ice-cold binding buffer containing: 20 mM Tris-HCl pH 7.4, 150 mM NaCl, 1 mM EDTA, 1 mM DTT, 10% glycerol and 1% Triton X-100. The mixture was incubated for 1 h at 4°C with gentle rocking. The beads were washed five times with the same ice-cold buffer, resuspended in 30 µl SDS-PAGE sample buffer, incubated 10 min at 65°C, and pelleted for 60 s at 3000 g. The supernatants were then analyzed by SDS-PAGE, the gels were stained with Coomassie blue to visualize GST-fusion proteins, dried and analyzed using a Phosphor-imager (Personal Molecular Imager FX, Biorad) to visualize [^35S]-labelled GASPs. Quantification was performed with the Quantity One software (Biorad). GST-pull down quantification data were analyzed using GraphPad Prism 4.03 (GraphPad Software). Quantifications presented are means of at least three independent experiments.

[3] = tested on: GST-fused TGFβ (type III transforming growth factor β receptor) C-tail; assay: GST-pull down, TGFβ C-tail; assay type: binding; details: non-GPCR control
Excerpt: as §1, §2, §3

[4] = tested on: GST-fused FZ4 C-tail; assay: GST-pull down, FZ4 C-tail; assay type: binding; details: strong = >10% of GASP input
Method: (§4) cDNAs encoding the cytoplasmic C-tail of 14 GPCRs and 2 one-transmembrane receptors were cloned into the pGEX-2T prokaryotic expression vector downstream the GST sequence. […]
(§5) GST-fusion proteins were immobilized on glutathione-coupled Sepharose beads (GE Healthcare) for 1 h at 4°C and incubated with [^35S]-labelled in vitro translated GASP proteins or their truncated or mutated forms in ice-cold binding buffer containing: 20 mM Tris-HCl pH 7.4, 150 mM NaCl, 1 mM EDTA, 1 mM DTT, 10% glycerol and 1% Triton X-100. […] The supernatants were then analyzed by SDS-PAGE, the gels were stained with Coomassie blue to visualize GST-fusion proteins, dried and analyzed using a Phosphor-imager (Personal Molecular Imager FX, Biorad) to visualize [^35S]-labelled GASPs. Quantification was performed with the Quantity One software (Biorad). GST-pull down quantification data were analyzed using GraphPad Prism 4.03 (GraphPad Software). Quantifications presented are means of at least three independent experiments.

[5] = tested on: GST-fused DOR C-tail; assay: GST-pull down, DOR C-tail; assay type: binding; details: among the opioid receptors
Excerpt: as §1, §2, §3

[6] = tested on: GST-fused CNR2 C-tail; assay: GST-pull down, CNR2 C-tail; assay type: binding; details: central domain compared to full-length GASP-1
Method: as §4, §5

[7] = tested on: GST-fused ADRB2 C-tail; assay: GST-pull down, ADRB2 C-tail; assay type: binding; details: central domain compared to full-length GASP-1
Method: as §4, §5

[8] = tested on: GST-fused ADRB1 C-tail; assay: GST-pull down, ADRB1 C-tail; assay type: binding; details: percent of input; data not shown
Excerpt: as §1, §2, §3

[9] = tested on: GST-fused DOR C-tail; details: previous study; ref [6]; cited from earlier work
Excerpt: We therefore hypothesized that this conserved carboxyl-terminal domain could be critical for the interaction of GASPs with GPCRs.

Molecule	GASP input retained by GPCR C-tails ([1]; percent of GASP input) [%]	interaction with GPCR C-tails ([1]; twelve GPCR C-tails)	interaction with IGF1 C-tail [2]	interaction with TGFβ C-tail [3]	interaction with FZ4 C-tail [4]	interaction with DOR C-tail [5]	interaction with CNR2 C-tail [6]	interaction with ADRB2 C-tail [7]	GASP-1 fragment input retained by ADRB1 C-tail [8] [%]	interaction with the DOR C-tail [9]
GASP-1: GPCR-associated sorting protein 1 (protein, [35S]-methionine labelled) MTGAEIESGAQVKPEKKPGEEVVGGAEIENDVPLVVRPKVRTQAQIMPGARPKNKSKVMPGASTKVETSAVGGARPKSKAKAIPVSRFKEEAQMWAQPRFGAERLSKTERNSQTNIIASPLVSTDSVLVAKTKYLSEDRELVNTDTESFPRRKAHYQAGFQPSFRSKEETNMGSWCCPRPTSKQEASPNSDFKWVDKSVSSLFWSGDEVTAKFHPGNRVKDSNRSMHMANQEANTMSRSQTNQELYIASSSGSEDESVKTPWFWARDKTNTWSGPREDPNSRSRFRSKKEVYVESSSGSEHEDHLESWFGAGKEAKFRSKMRAGKEANNRARHRAKREACIDFMPGSIDVIKKESCFWPEENANTFSRPMIKKEARARAMTKEEAKTKARARAKQEARSEEEALIGTWFWATDESSMADEASIESSLQVEDESIIGSWFWTEEEASMGTGASSKSRPRTDGERIGDSLFGAREKTSMKTGAEATSESILAADDEQVIIGSWFWAGEEVNQEAEEETIFGSWFWVIDAASVESGVGVSCESRTRSEEEEVIGPWFWSGEQVDIEAGIGEEARPGAEEETIFGSWFWAENQTYMDCRAETSCDTMQGAEEEEPIIGSWFWTRVEACVEGDVNSKSSLEDKEEAMIPCFGAKEEVSMKHGTGVRCRFMAGAEETNNKSCFWAEKEPCMYPAGGGSWKSRPEEEEDIVNSWFWSRKYTKPEAIIGSWLWATEESNIDGTGEKAKLLTEEETIINSWFWKEDEAISEATDREESRPEAEEGDIIGSWFWAGEEDRLEPAAETREEDRLAAEKEGIVGSWFGAREETIRREAGSCSKSSPKAEEEEVIIGSWFWEEEASPEAVAGVGFESKPGTEEEEITVGSWFWPEEEASIQAGSQAVEEMESETEEETIFGSWFWDGKEVSEEAGPCCVSKPEDDEEMIVESWFWSRDKAIKETGTVATCESKPENEEGAIVGSWFEAEDEVDNRTDNGSNCGSRTLADEDEAIVGSWFWAGDEAHFESNPSPVFRAICRSTCSVEQEPDPSRRPQSWEEVTVQFKPGPWGRVGFPSISPFRFPKEAASLFCEMFGGKPRNMVLSPEGEDQESLLQPDQPSPEFPFQYDPSYRSVQEIREHLRAKESTEPESSSCNCIQCELKIGSEEFEELLLLMEKIRDPFIHEISKIAMGMRSASQFTRDFIRDSGVVSLIETLLNYPSSRVRTSFLENMIRMAPPYPNLNIIQTYICKVCEETLAYSVDSPEQLSGIRMIRHLTTTTDYHTLVANYMSGFLSLLATGNAKTRFHVLKMLLNLSENLFMTKELLSAEAVSEFIGLFNREETNDNIQIVLAIFENIGNNIKKETVFSDDDFNIEPLISAFHKVEKFAKELQGKTDNQNDPEGDQEN	> 10	medium to strong interactions	no interaction was detected	no interaction was detected	strong interaction	significant interactions	interact with GASP-1	interact with GASP-1	–	–
amino acids 924 to 1395: carboxyl-terminal fragment of GASP-1, contains 2 GASP motifs (protein, [35S]-methionine labelled) CCVSKPEDDEEMIVESWFWSRDKAIKETGTVATCESKPENEEGAIVGSWFEAEDEVDNRTDNGSNCGSRTLADEDEAIVGSWFWAGDEAHFESNPSPVFRAICRSTCSVEQEPDPSRRPQSWEEVTVQFKPGPWGRVGFPSISPFRFPKEAASLFCEMFGGKPRNMVLSPEGEDQESLLQPDQPSPEFPFQYDPSYRSVQEIREHLRAKESTEPESSSCNCIQCELKIGSEEFEELLLLMEKIRDPFIHEISKIAMGMRSASQFTRDFIRDSGVVSLIETLLNYPSSRVRTSFLENMIRMAPPYPNLNIIQTYICKVCEETLAYSVDSPEQLSGIRMIRHLTTTTDYHTLVANYMSGFLSLLATGNAKTRFHVLKMLLNLSENLFMTKELLSAEAVSEFIGLFNREETNDNIQIVLAIFENIGNNIKKETVFSDDDFNIEPLISAFHKVEKFAKELQGKTDNQNDPEGDQEN	–	–	–	–	–	–	–	–	5	strong interaction

— article PMC3575409, “Identification of a Novel Protein-Protein Interaction Motif Mediating Interaction of GPCR-Associated Sorting Proteins with G Protein-Coupled Receptors” (PLoS ONE, 2013)
